Values joined by “and” are separate entries in the source; they are usually repeats but may differ in a detail not shown here. Equal entries are not always repeated.
Key:
[1] = test system: full-thickness defect of rabbit knee articular cartilage; test: Full-thickness cartilage defect of rabbit knee joint, intra-articular rhMK; assay type: in vivo, New Zealand white rabbits; details: rabbit knee full-thickness cartilage damage model, 18 samples, 13 recovered; no recovery in saline control sides, P<0.01
Method: Method. 2-month-old male New Zealand white rabbits (2.0˜2.5 kg weight) were anesthetized with 3% pentobarbital sodium (30 mg/kg) by ear vein injection. After anesthesia, prepare the skin on both sides of the knees were prepared for sterilization. With conventional surgical sterilization and under sterile conditions, the inner side of knees was cut to expose the femoral condyle surface. The full-thickness cartilage injury was made on the femoral condyle surface for both sides of the rabbit knees using an electrical drill. The cartilage hole was 3 mm in diameter and 4 mm in depth. The wound was closed with 4-0 lines. 400,000 units penicillin was injected daily for one week to prevent the wound site infection. 24 hours after surgery, normal saline or rhMK was injected into the knee articular cavity. The injection volume was 0.5 ml, three times a week for 2 weeks. rhMK was injected into one side of the rabbit knee joint, the other side was injected with saline as control. The rabbits were kept in cages and moved freely without fixation of the injured knees. After 2, 4, 6 and 12 weeks, rabbits were sacrificed. Cartilage tissues of the knee joint were removed for routine biopsy. The tissue sections were prepared for H&E, and fast green—Safranin O staining. The histological observation and evaluation were conducted under microscope.

[2] = test system: rat articular chondrocyte; test: Cell expansion in passaged monolayer culture; assay type: cell-based
Method: (§1) 1. Preparation of primary chondrocyte. The 8-week-old male SD rats were sacrificed under sterile conditions. The articular cartilage, fibrocartilage and elastic cartilage tissue were isolated from the femur joints, meniscus and outer ear respectively using a scalpel. The isolated cartilage were cut into small pieces, washed twice with phosphate buffered saline (PBS), and digested with trypsin (0.25% (w/v) trypsin/0.02% (w/v) EDTA) at 37° C. for 30 min. The articular cartilage and elastic cartilage were further digested with 0.2% type II collagenase for additional 16 h, and the fibrocartilage were further digested with 0.15% type I collagenase for additional 16 h. After digestion, three chondrocytes were passed through 100 μm filter (Falcon, USA) into 15 ml centrifuge tubes, centrifuged at room temperature at 2000 rpm for 5 min. Cells were resuspended in DMEM containing 10% FBS (fetal bovine serum). Trypan blue staining of the freshly isolated cells was used to monitor the percentage of live cells under the microscope. When the number of live cells is more than 95%, it was used for subsequent experiments.
(§2) 3. Culture of primary chondrocytes in monolayer. Three types of primary chondrocytes were suspended in DMEM medium containing 10% FBS, adjusted to 5×10^4 cells/ml, added to 6-well plate with 2 ml medium/well, and incubated in 37° C. at 5% CO2. Experiment was divided into two groups: control group and experimental group (with 3 μg/ml rhMK). Cell medium was changed every two days. When the cells grew to the confluence of 85% to 90%, the cells were collected by trypsin digestion, washed in PBS by centrifugation. The cells were resuspended in DMEM containing 10% FBS. Cell survival was monitored by trypan blue staining. Part of the cells were used for cell passage; some were for RNA extraction; some were cytospined onto a glass slide for later immunohistochemical staining and the slides were stored at −80° C. Primary cells or passage 0 (P0) were cultured for 7 days. The newly passaged cells were further cultured in a 6-well plate for 3 days which was then collected by trypsin-digestion and marked as passage P1. The cell amplification at each passage=total number of cells at output/total number of cells at initial input.

[3] = test system: rat auricular chondrocyte; test: Cell expansion in passaged monolayer culture; assay type: cell-based
Method: as §1, §2

rat fibrochondrocyte = test: Cell expansion in passaged monolayer culture; assay type: cell-based
Method: as §1, §2

[4] = test system: rat fibrochondrocyte and articular chondrocyte; test: Phenotype of chondrocytes in monolayer culture (semi-quantitative PCR, collagen II immunohistochemical staining); assay type: cell-based; details: passages P0-P2, Col2a1/collagen II
Method: as §2, with “input. 6. Immunohistochemical staining. […] RNA extraction and semi-quantitative PCR. […] PCR products were separated on 1.5% (w/v) agarose gels and quantified after staining with ethidium bromide in comparison with internal control gene expression of β-actin.” for “input.”

[5] = P0, rhMK 3 μg/ml versus no rhMK
[6] = P1, rhMK 3 μg/ml versus no rhMK
[7] = P2, rhMK 3 μg/ml versus no rhMK

B1: rhMK: recombinant human midkine mature protein (SEQ ID NO.1) expressed in E. coli and purified by ion-exchange chromatography (protein, listed as Homo sapiens)
chain: MKKKDKVKKGGPGSECAEWAWGPCTPSSKDCGVGFREGTCGAQTQRIRCRVPCNWKKEFGADCKYKFENWGACDGGTGTKVRQGTLKKARYNAQCQETIRVTKPCTPKTKAKAKAKKGKGKD
rate of recovery in the rhMK treated side [1]: 72.2%
Cell expansion (in fold) ([2]; P0, rhMK 3 μg/ml): 13.5 ± 1.2 fold
Proliferation rate (%) [2, 5]: 112%
Cell expansion (in fold) ([2]; P1, rhMK 3 μg/ml): 12.0 ± 1.4 fold
Proliferation rate (%) [2, 6]: 74%
Cell expansion (in fold) ([2]; P2, rhMK 3 μg/ml): 11.5 ± 0.5 fold
Proliferation rate (%) [2, 7]: 48%
Cell expansion (in fold) ([3]; P0, rhMK 3 μg/ml): 7.9 ± 0.1 fold
Proliferation rate (%) [3, 5]: 65%
Cell expansion (in fold) ([3]; P1, rhMK 3 μg/ml): 16.1 ± 1.1 fold
Proliferation rate (%) [3, 6]: 66%
Cell expansion (in fold) ([3]; P2, rhMK 3 μg/ml): 8.2 ± 1.0 fold
Proliferation rate (%) [3, 7]: 55%
Cell expansion (in fold) (rat fibrochondrocyte; P0, rhMK 3 μg/ml): 5.3 ± 1.3 fold
Proliferation rate (%) (rat fibrochondrocyte; [5]): 112% and 110%
Cell expansion (in fold) (rat fibrochondrocyte; P1, rhMK 3 μg/ml): 28.1 ± 3.4 fold
Proliferation rate (%) (rat fibrochondrocyte; [6]): 51%
Cell expansion (in fold) (rat fibrochondrocyte; P2, rhMK 3 μg/ml): 20.9 ± 0.9 fold
Proliferation rate (%) (rat fibrochondrocyte; [7]): 35%
effect on the phenotype of fibrochondrocyte and articular chondrocyte [4]: no significant effect
